# Results: patent US20230220042A1 (SHANGHAI JIAO TONG UNIVERSITY SCHOOL OF MEDICINE, published 2023)
# Substitutions are numbered along the chain they refer to. In names and notes the source's numbering stands.
# T1: Biotin-FcγRIIB (human, UniProt P31994 43-217, limits assumed, biotin-labelled)
# T1 construct: Bought, biotin-labelled; used at 1 µg/ml for staining and sorting; also called human FcγRIIB; CD32b
# T1 sequence (looked up): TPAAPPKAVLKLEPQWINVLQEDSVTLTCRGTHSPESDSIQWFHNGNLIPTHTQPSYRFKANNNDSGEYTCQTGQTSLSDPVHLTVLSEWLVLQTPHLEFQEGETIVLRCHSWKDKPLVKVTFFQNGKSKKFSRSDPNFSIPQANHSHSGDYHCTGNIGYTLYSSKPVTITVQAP
# B1: human IgG2 anti-mouse CD40 surface displayed antibody, Fc mutant G327L (antibody, name in EU numbering)
# light chain (with the P2A rest): DTVLTQSPALAVSPGERVTISCRASDSVSTLMHWYQQKPGQQPKLLIYLASHLESGVPARFSGSGSGTDFTLTIDPVEADDTATYYCQQSWNDPWTFGGGTKLELKRTVAAPSVFIFPPSDEQLKSGTASVVCLLNNFYPREAKVQWKVDNALQSGNSQESVTEQDSKDSTYSLSSTLTLSKADYEKHKVYACEVTHQGLSSPVTKSFNRGECGSGATNFSLLKQAGDVEENPG
# heavy chain: EVQLVESDGGLVQPGRSLKLPCAASGFTFSDYYMAWVRQAPTKGLEWVASISYDGSSTYYRDSVKGRFTISRDNAKSTLYLQMDSLRSEDTATYYCGRHSSYFDYWGQGVMVTVSSASTKGPSVFPLAPCSRSTSESTAALGCLVKDYFPEPVTVSWNSGALTSGVHTFPAVLQSSGLYSLSSVVTVPSSNFGTQTYTCNVDHKPSNTKVDKTVERKCCVECPPCPAPPVAGPSVFLFPPKPKDTLMISRTPEVTCVVVDVSHEDPEVQFNWYVDGVEVHNAKTKPREEQFNSTFRVVSVLTVVHQDWLNGKEYKCKVSNKLLPAPIEKTISKTKGQPREPQVYTLPPSREEMTKNQVSLTCLVKGFYPSDIAVEWESNGQPENNYKTTPPMLDSDGSFFLYSKLTVDKSRWQQGNVFSCSVMHEALHNHYTQKSLSLSPGKLEPPPSTVSNMATVAVLVVLGAAIVTGAVVAFVMKMRRRNTGGKGGDYALAPGSQTSDLSLPDCKVMVHDPHSLA
# notes: as m1; positions are Eu numbers; copies: 2 + 2
# B2: human IgG2 anti-mouse CD40 surface displayed antibody, Fc mutant G327S (antibody, name in EU numbering)
# light chain (with the P2A rest): B1 light chain (with the P2A rest)
# heavy chain: B1 heavy chain with L322S
# notes: as for B1
# B3: human IgG2 anti-mouse CD40 surface displayed antibody, Fc mutant S267E/D270H (antibody, name in EU numbering)
# light chain (with the P2A rest): B1 light chain (with the P2A rest)
# heavy chain: B1 heavy chain with S262E, D265H, L322G
# notes: as for B1
# B4: human IgG2 anti-mouse CD40 surface displayed antibody, Fc mutant S267E/P271V (antibody, name in EU numbering)
# light chain (with the P2A rest): B1 light chain (with the P2A rest)
# heavy chain: B1 heavy chain with S262E, P266V, L322G
# notes: as for B1
# B5: human IgG2 anti-mouse CD40 surface displayed antibody, Fc mutant L328V (antibody, name in EU numbering)
# light chain (with the P2A rest): B1 light chain (with the P2A rest)
# heavy chain: B1 heavy chain with L322G, L323V
# notes: as for B1
# B6: human IgG2 anti-mouse CD40 surface displayed antibody, Fc mutant S267E/P271W (antibody, name in EU numbering)
# light chain (with the P2A rest): B1 light chain (with the P2A rest)
# heavy chain: B1 heavy chain with S262E, P266W, L322G
# notes: as for B1
# B7: human IgG2 anti-mouse CD40 surface displayed antibody, Fc mutant L328N (antibody, name in EU numbering)
# light chain (with the P2A rest): B1 light chain (with the P2A rest)
# heavy chain: B1 heavy chain with L322G, L323N
# notes: as for B1
# B8: human IgG2 anti-mouse CD40 surface displayed antibody, Fc mutant P271G/S298N (antibody, name in EU numbering)
# light chain (with the P2A rest): B1 light chain (with the P2A rest)
# heavy chain: B1 heavy chain with P266G, S293N, L322G
# notes: as for B1
# Assays:
# Biotin-FcγRIIB (human) [1] = biological target: Biotin-FcγRIIB (human) (UniProt P31994); assay: FACS sorting of displayed Fc library on biotin-FcγRIIB, NGS
# Biotin-FcγRIIB (human) [2] = biological target: Biotin-FcγRIIB (human) (UniProt P31994); assay: NGS of 3T3 display library C2 flow-sorted for FcγRIIB binding
# Biotin-FcγRIIB [3] = biological target: T1, Biotin-FcγRIIB; assay: magnetic sorting on biotin-FcγRIIB with unlabelled activating FcγRs, NGS; Library4
# Description: (§1) 3T3 cells were collected by trypsin digestion, and a single cell suspension was prepared. […] The cells were incubated for 15 minutes on ice and then washed twice with MACS buffer and re-suspended in 100 μl MACS buffer. Twenty-five μl anti-Biotin magnetic beads were added, and the cells were incubated for 15 minutes on ice and then washed once with MACS buffer and re-suspended to 500 μl, and added to the LS column put in the magnetic field. The effluent was collected, washed with 3 mL of MACS buffer and collected; The LS column was then removed out of the magnetic field, and 5 mL of MACS buffer was used to rapidly elute the remaining cells from the sorting column to collect positive cells, which are the high I/A ratio cells.
# The high-FcγRIIB-affinity cells obtained from the above flow cytometry sorting are further sorted by magnetic-activated sorting. The cells are incubated with the mixture of Biotin-labeled FcγRIIB and non-labeled activating FcγRs, and then the labeled cells are sorted by anti-Biotin magnetic beads. The enrichment ratios after sorting relative to before sorting are analyzed by NGS.
# Biotin-FcγRIIB [4] = biological target: T1, Biotin-FcγRIIB; assay: FACS sorting of displayed Fc library on biotin-FcγRIIB, NGS
# Biotin-FcγRIIB [5] = biological target: T1, Biotin-FcγRIIB; assay: FACS sorting of displayed Fc library on biotin-FcγRIIB, NGS; reference S267E
# Biotin-FcγRIIB [6] = biological target: T1, Biotin-FcγRIIB; assay: magnetic sorting on biotin-FcγRIIB with unlabelled activating FcγRs, NGS; LibraryMix #3
# Description: as §1
# Biotin-FcγRIIB [7] = biological target: T1, Biotin-FcγRIIB; assay: FACS sorting of displayed Fc library on biotin-FcγRIIB, NGS; reference P271G
molecule,measurement,setting,value
"human IgG2 anti-mouse CD40 surface displayed antibody, Fc mutant D270H",Increased factor b Site 2 (point mutation/wild-type),Biotin-FcγRIIB (human) [1],1.3
"human IgG2 anti-mouse CD40 surface displayed antibody, Fc mutant S298D",Increased factor b Site 2 (point mutation/wild-type),Biotin-FcγRIIB (human) [1],1.6
"human IgG2 anti-mouse CD40 surface displayed antibody, Fc mutant T299W",Increased factor b Site 2 (point mutation/wild-type),Biotin-FcγRIIB (human) [1],0.5
"human IgG2 anti-mouse CD40 surface displayed antibody, Fc mutant P329S",Increased factor b Site 2 (point mutation/wild-type),Biotin-FcγRIIB (human) [1],1.2
"human IgG2 anti-mouse CD40 surface displayed antibody, V234Q/V266L/S267D/H268D/E269D/P271Q","enrichment factor, percentage after 3rd sorting/percentage after 2nd sorting",Biotin-FcγRIIB (human) [2],15.4
same,percentage after 2nd sorting,Biotin-FcγRIIB (human) [2],0%
same,percentage after 3rd sorting,Biotin-FcγRIIB (human) [2],0.04%
"human IgG2 anti-mouse CD40 surface displayed antibody, Fc mutant T299S",Increased factor b Site 2 (point mutation/wild-type),Biotin-FcγRIIB (human) [1],0.6
"human IgG2 anti-mouse CD40 surface displayed antibody, Fc mutant S298G",Increased factor b Site 2 (point mutation/wild-type),Biotin-FcγRIIB (human) [1],1.2
"human IgG2 anti-mouse CD40 surface displayed antibody, Fc mutant T299A",Increased factor b Site 2 (point mutation/wild-type),Biotin-FcγRIIB (human) [1],0.4
"human IgG2 anti-mouse CD40 surface displayed antibody, Fc mutant P271W",Increased factor b Site 2 (point mutation/wild-type),Biotin-FcγRIIB (human) [1],0.4
"human IgG2 anti-mouse CD40 surface displayed antibody, Fc mutant G236V",Increased factor b Site 2 (point mutation/wild-type),Biotin-FcγRIIB (human) [1],0.5
"human IgG2 anti-mouse CD40 surface displayed antibody, Fc mutant I332E",Increased factor b Site 2 (point mutation/wild-type),Biotin-FcγRIIB (human) [1],1.1
"human IgG2 anti-mouse CD40 surface displayed antibody, Fc mutant S298R",Increased factor b Site 2 (point mutation/wild-type),Biotin-FcγRIIB (human) [1],0.8
"human IgG2 anti-mouse CD40 surface displayed antibody, Fc mutant I332T",Increased factor b Site 2 (point mutation/wild-type),Biotin-FcγRIIB (human) [1],1.6
B1,Enrichment factor (percentage after sorting/percentage before sorting),Biotin-FcγRIIB [3],3.77
same,Increased factor (mutation enrichment factor/wild-type enrichment factor),Biotin-FcγRIIB [3],4.28
same,Percentage after sorting/unbinding percentage,Biotin-FcγRIIB [3],3.8
same,Percentage before sorting/unbinding percentage,Biotin-FcγRIIB [3],1.01
B2,Enrichment factor (percentage after sorting/percentage before sorting),Biotin-FcγRIIB [3],6.9
same,Increased factor (mutation enrichment factor/wild-type enrichment factor),Biotin-FcγRIIB [3],7.84
same,Percentage after sorting/unbinding percentage,Biotin-FcγRIIB [3],71.2
same,Percentage before sorting/unbinding percentage,Biotin-FcγRIIB [3],10.3
B3,Enrichment factor (after/before sorting),Biotin-FcγRIIB [4],42.7
same,Increased factor a (enrichment factor/wild-type enrichment factor),Biotin-FcγRIIB [4],74.3
same,Increased factor 2 c Site 1 (combined/point mutation),Biotin-FcγRIIB [5],2.6
B4,Enrichment factor (after/before sorting),Biotin-FcγRIIB [4],22.1
same,Increased factor a (enrichment factor/wild-type enrichment factor),Biotin-FcγRIIB [4],38.4
same,Increased factor 2 c Site 1 (combined/point mutation),Biotin-FcγRIIB [5],1.4
B5,Enrichment factor (percentage after sorting/percentage before sorting),Biotin-FcγRIIB [6],2.31
same,Increased factor (mutation enrichment factor/wild-type enrichment factor),Biotin-FcγRIIB [6],2.04
same,Percentage after sorting/unbinding percentage,Biotin-FcγRIIB [6],25.4
same,Percentage before sorting/unbinding percentage,Biotin-FcγRIIB [6],11
B6,Enrichment factor (after/before sorting),Biotin-FcγRIIB [4],24
same,Increased factor a (enrichment factor/wild-type enrichment factor),Biotin-FcγRIIB [4],41.8
same,Increased factor 2 c Site 1 (combined/point mutation),Biotin-FcγRIIB [5],1.5
B7,Enrichment factor (percentage after sorting/percentage before sorting),Biotin-FcγRIIB [3],2.73
same,Increased factor (mutation enrichment factor/wild-type enrichment factor),Biotin-FcγRIIB [3],3.11
same,Percentage after sorting/unbinding percentage,Biotin-FcγRIIB [3],50.9
same,Percentage before sorting/unbinding percentage,Biotin-FcγRIIB [3],18.6
B8,Increased factor 2 c Site 1 (combined/point mutation),Biotin-FcγRIIB [7],5.1
same,Enrichment factor (after/before sorting),Biotin-FcγRIIB [4],18
same,Increased factor a (enrichment factor/wild-type enrichment factor),Biotin-FcγRIIB [4],24
same,Enrichment factor (percentage after sorting/percentage before sorting),Biotin-FcγRIIB [6],2.31
same,Increased factor (mutation enrichment factor/wild-type enrichment factor),Biotin-FcγRIIB [6],2.04
same,Percentage after sorting/unbinding percentage,Biotin-FcγRIIB [6],11.9
same,Percentage before sorting/unbinding percentage,Biotin-FcγRIIB [6],5.17
